Consider 31 sequences from the supplement of paper PMC9170038.

In the data set the test system is MS2 coat protein. As to the kind of experiment: apparent KD of MS2 coat protein; designed switch direction (-1 OFF switch, 1 ON switch): -1; higher = weaker reporter binding. The method, boiled down:
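On Illumina chips, designed RNA switches with common flanks were made by stalled E. coli RNA polymerase. Titrations with SNAP-549-labelled MS2 coat protein, doubling from 0.7 or 1.5 nM to 3 µM, were done with no input, with 200 uM small-molecule ligand, or with an oligonucleotide input. Apparent KD is the median per design over clusters, from curve fits of normalised cluster fluorescence.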

[1] abbreviates: Eterna round: R95, input ligand: FMN 200 uM.
Where [2] appears, read: Eterna round: R95, input ligand: microRNA oligo, concentration not stated.
Where [3] appears, read: Eterna round: R95, input ligand: none.
Setting [4] is: input ligand: microRNA oligo, concentration not stated.

On to “UUUAUAAUUUCAAUCUUCGCCAGCAAACUAACACUGGCCACAUGAGGAUCACCCAUGUUUUUUGUUCGUUUUAUUCU [Cesoorso] (puzzle: Sensor v3, turn-off variant 2)”, for which the “apparent KD of MS2 coat protein” value is 21.6 nM under setting [1], 62.9 nM under setting [2] and 23.3 nM under setting [3].

Consider “CUCUUGUUAGGAUAUCAAACCGGCAGCGGAGCCGCCGGAAGUGAGAAGGGACAUGAGGAUCACCCAUGUAAGAA [Quatdior] (puzzle: Exclusion 4)”, for which the “apparent KD of MS2 coat protein” value under setting [2] was 58.9 nM.

With “UUCCGGUGAGGAUAUUGCACGGUGGGAGAGAGCGCCACUGUCAAGAAGGUACAUGAGGAUCACCCAUGUGAGUA [Eternabot (L1) Solution 24] (Eterna round: R97, puzzle: Exclusion 4)”, the “apparent KD of MS2 coat protein” value is 21.1 nM (input ligand: FMN 200 uM) and 25.1 nM (input ligand: none).

Regarding “ACUAGAUGAGGAUAUGCACAUUUUAGUGUUCCUCUAGAUUAACAUGAGGAUCACCCAUGUAGAAGGCGUCAUUA [Exclusion 2 - 14] (puzzle: Exclusion 2)”, the “apparent KD of MS2 coat protein” value under setting [2] worked out at 49.9 nM.

On to “CUGAGCAGACGGAGAUCCAACAUGAGGAUCACCCAUGUCUCAAAAGCUUUUUGCUUGUCUUACCCUCCUCUGUUCUC [Isceeren] (puzzle: Sensor v3, turn-off variant 1)”, for which the “apparent KD of MS2 coat protein” value by setting is: under setting [1], 18.1 nM; under setting [2], 122 nM; under setting [3], 15.7 nM.

For the sequence “UUUGUCUGUGUGAGGAUAUACUUGUUUGGGUUUUUGUAGAAGGCACAUGAGGAUCACCCAUGUAUUUUGUUGUG [JR_BME4_Sub017] (Eterna round: R96, puzzle: Brourd's mod of Exclusion 4)”, the “apparent KD of MS2 coat protein” value reads like this: (input ligand: FMN 200 uM) 86.5 nM; under setting [4], 47.7 nM; (input ligand: none) 55.9 nM.

As for “CCAGCGUAUGUGAGGAUAUGCUGGUCCUUGGAUCAGCAGAAGGCACAUGAGGAUCACCCAUGUGGAAACGUUGA [Mod of JL 2 - Jieux - Brourd's mod of Exclusion 4] (Eterna round: R97, puzzle: Brourd's mod of Exclusion 4)”, the “apparent KD of MS2 coat protein” value turned out to be 44.9 nM (input ligand: FMN 200 uM) and 19.9 nM (input ligand: none).

For the sequence “GGCCCGCGCGGGCCCGGGCCCGGGACAUGAGGAUCACCCAUGUAGGAUAUCCGGCCCGCCGGGCCGGAGAAGGACAUGGGCCCG [-48.9, -45.2 kcal, 17% A] (Eterna round: R96, puzzle: Exclusion NG 3)”, the “apparent KD of MS2 coat protein” value worked out at 34.1 nM (input ligand: FMN 200 uM), 11.1 nM under setting [4] and 16.9 nM (input ligand: none).

“CCGACUCAAGGAUAUUGUACUGCUGACAUGAGGAUCACCCAUGUAUGUUAACUCGGCCGACGAGAAGGUGACGACA [BotMod 1 - Jieux - Exclusion 5] (Eterna round: R97, puzzle: Exclusion 5)”: the “apparent KD of MS2 coat protein” value runs as follows: (input ligand: FMN 200 uM) 39.6 nM; (input ligand: none) 43.1 nM.

On to “ACUGGAGCAGGAUAUGCAUUCGUGCUUCGGCACGUAAGGUCACAUGAGGAUCACCCAUGUAGAAGGGCUCCAGU [E2/6-D1] (Eterna round: R97, puzzle: Exclusion 2)”, for which the “apparent KD of MS2 coat protein” value is, setting by setting: (input ligand: FMN 200 uM) 32.9 nM; (input ligand: none) 19.7 nM.

With “GUCUGGCUAGGAUAUACAGUGUCCACAAGUUAGUUACCCUAACAUGAGGAUCACCCAUGUAGAAGGAGUGAGAA [Revebeed] (Eterna round: R96, puzzle: Exclusion 2)”, the “apparent KD of MS2 coat protein” value (input ligand: FMN 200 uM) is 355 nM, the “apparent KD of MS2 coat protein” value under setting [4] worked out at 34.7 nM and the “apparent KD of MS2 coat protein” value (input ligand: none) was determined as 45.4 nM.

Turning to “CUUAGCCUAAAAUCACGCAAGCUCUUUGCUUGUCUUAAGACAUGAGGAUCACCCAUGUCCGGGCUGAACUUAUGGAA [Qugegele] (puzzle: Sensor v3, turn-off variant 2)”, the “apparent KD of MS2 coat protein” value stood at 19.9 nM under setting [1], 24.9 nM under setting [2] and 21 nM under setting [3].

On to “AUCUUGUAAGGAUAUCUUACAAGUGACUUCGGUCACAGUUAAGAGAAGGUACAUGAGGAUCACCCAUGUAUAAC [Ex4-3: 38] (puzzle: Exclusion 4)”, for which the “apparent KD of MS2 coat protein” value under setting [2] was determined as 23.8 nM.

Consider “UCAGUUCUGCAAGGAUAUCGUCCUAGUUUGGUUCGAGAAGGUGCUUUUGUUUUUUCUUUGUGUUGACAUGAGGAUCACCCAUGU [JR_ExcNG1_Sub053] (Eterna round: R96, puzzle: Exclusion NG 1)”, for which the “apparent KD of MS2 coat protein” value worked out at 20.7 nM (input ligand: FMN 200 uM), 13.8 nM under setting [4] and 27.1 nM (input ligand: none).

“CUGGUCCGAGGAUAUAUUAUGUGAUACAUGAGGAUCACCCAUGUUAUAUGAUGGAUGUUAGUAGAAGGCGGACUAG [JL-ex5-3.21] (puzzle: Exclusion 5)”: the “apparent KD of MS2 coat protein” value by setting is: under setting [1], 102 nM; under setting [2], 57.3 nM; under setting [3], 59.9 nM.

In the case of “AAGCAUUGCCAAAGGUAGUGCUUAACAUGAGGAUCACCCAUGUAGGAUAUGGUAGGCAAAGCUUACCAGAAGGACAUGAUAAUU [Mat - Exclusion NG 3 - Mod of JL - D14] (Eterna round: R96, puzzle: Exclusion NG 3)”, the “apparent KD of MS2 coat protein” value turned out to be 430 nM (input ligand: FMN 200 uM), 61.5 nM under setting [4] and 70.8 nM (input ligand: none).

For “GGAUCUUGGGUCAGGAUAUGCUGAUAUUUUUGUCAGCAGAAGGGACAUGAGGAUCACCCAUGUGCUUGGUUUUG [Magic-16] (puzzle: Brourd's mod of Exclusion 4)”, the “apparent KD of MS2 coat protein” value under setting [2] stood at 12.6 nM.

On to “CGCGGCGCGUAGGAUAUUGGGUCGGACGGCAAAUAAGAAGGACGCACAUGAGGAUCACCCAUGUCGAAAGCACA [Eternabot (Original) Solution 17] (Eterna round: R97, puzzle: Exclusion 6)”, for which the “apparent KD of MS2 coat protein” value (input ligand: FMN 200 uM) was determined as 27.8 nM and the “apparent KD of MS2 coat protein” value (input ligand: none) is 33.7 nM.

As to “AGUAGUAGUAUCCGAUCCUACAUGAGGAUCACCCAUGUUGCUAGACGUGCACGCGAUGCUCGUCAGACUACCAGAUG [salish99_TOv1_r3_050] (puzzle: Sensor v3, turn-off variant 1)”, the “apparent KD of MS2 coat protein” value was 326 nM under setting [1], 150 nM under setting [2] and 157 nM under setting [3].

Take “UUGUGAGGUGUAGGAUAUUGUUGUUGUUUUUAGCGAGAAGGACAUGAGGAUCACCCAUGUGUCGUGUUUUUUUUUUUUUUUUUU [simply blue] (Eterna round: R96, puzzle: Exclusion NG 1)”: the “apparent KD of MS2 coat protein” value was found to be 78.9 nM (input ligand: FMN 200 uM), 93.5 nM under setting [4] and 59.1 nM (input ligand: none).

With “GAUACACAUGAGGAUCACCCAUGUGAGGAUAUGCGUACGUUGUCCGUAGGCGACGUGCGCAGAAGGCGCAAGGU [Mat - Mod of JL D96] (puzzle: Exclusion 1)”, the “apparent KD of MS2 coat protein” value under setting [2] stood at 55 nM.

On to “AGUUGGCGAGGAUAUACAUGAGGAUCACCCAUGUGAGAGAUACUAGUGAGGUCGGUUAGUAGAAGGCGCUGACA [Mat X3R4 m16] (Eterna round: R97, puzzle: Exclusion 3)”, for which the “apparent KD of MS2 coat protein” value is 344 nM (input ligand: FMN 200 uM) and 35.5 nM (input ligand: none).

Consider “GGCCGAGAACAGCUCCACGCUACCCUCGGCCGCUCAUUUACAUGAGGAUCACCCAUGUUUUUUGCUUGUCUUGUUUC [Xeisrarabi] (puzzle: Sensor v3, turn-off variant 2)”, for which the “apparent KD of MS2 coat protein” value by setting is: under setting [1], 22.1 nM; under setting [2], 94.1 nM; under setting [3], 24.1 nM.

Consider “CUUAGCCUAAAAUCACGCAAGCUUUUCGCUUGUCUUAAGACAUGAGGAUCACCCAUGUCCGGGCUGAACUUAUGGAA [Esenma] (puzzle: Sensor v3, turn-off variant 2)”, for which the “apparent KD of MS2 coat protein” value turned out to be 18.3 nM under setting [1], 19.2 nM under setting [2] and 18.5 nM under setting [3].

For “GUCAGCUCGUCAGGAUAUAUAUACAUGAGGAUCACCCAUGUAAGAUCAGGCUUCGGCCAAUGUAUAUAGAAGGGACGAGCUGAC [ENG2/11-B1] (Eterna round: R96, puzzle: Exclusion NG 2)”, the “apparent KD of MS2 coat protein” value reads like this: (input ligand: FMN 200 uM) 500 nM; under setting [4], 691 nM; (input ligand: none) 716 nM.

“GGUGCGUUUGUGAGGAUAUGCUGGUCCUUGGAUCCGCAGAAGGCACAUGAGGAUCACCCAUGUGGUGUCGUACC [salish99_Bmod_Ex4_034] (puzzle: Brourd's mod of Exclusion 4)”: the “apparent KD of MS2 coat protein” value under setting [2] was 199 nM.

In the case of “AAUAACAGAGGAUAUACUGUUUUAUGUAUUUAUUAUUUUAAACAUGAGGAUCACCCAUGUAGAAGGCUGAAUAA [JMF 12] (puzzle: Exclusion 2)”, under setting [2], the “apparent KD of MS2 coat protein” value is 19.1 nM.

“AAAUUGGUAGAGGAUAUCGCACAGGAUUUACUGCGAGAAGGCUGCACAUGAGGAUCACCCAUGUUUAGUUGCGA [EX6 #36] (Eterna round: R97, puzzle: Exclusion 6)”: the “apparent KD of MS2 coat protein” value by setting is: (input ligand: FMN 200 uM) 20.3 nM; (input ligand: none) 17.3 nM.

Turning to “UUUUAAUAUGAAGGAUAUACUUAACAUGAGGAUCACCCAUGUGGUGUUGUGAGUGAGUGAGUUUAGUAGAAGGUCAAUGAUUUU [JMF's solution 69] (Eterna round: R96, puzzle: Exclusion NG 2)”, the “apparent KD of MS2 coat protein” value is, setting by setting: (input ligand: FMN 200 uM) 638 nM; under setting [4], 381 nM; (input ligand: none) 252 nM.

On to “CCUCUACAUGAGGAUCACCCAUGUGAGGAUAUCUCGGAGCAGCCACUUAAGGCGCUCCAGAGAAGGCACGUGUA [Resogeorza] (puzzle: Exclusion 1)”, for which, under setting [2], the “apparent KD of MS2 coat protein” value worked out at 17.6 nM.

Turning to “GUGAUCUAUCAUGUAAUCAACAUGAGGAUCACCCAUGUAGACAAGUUUUUUGCUCGUCUGAUAAUAAGAUAGAUCAC [Antenna 16 - Jieux - Sensor, turn-off variant 1] (Eterna round: R97, puzzle: Sensor, turn-off variant 1)”, the “apparent KD of MS2 coat protein” value is, setting by setting: (input ligand: FMN 200 uM) 13.8 nM; (input ligand: none) 12.3 nM.
